We go through 1 variant from IntAct's records for PubMed 8940099.

B1: NF-kappa-B inhibitor alpha (Homo sapiens), P25963 (parent)
chain: MFQAAERPQEWAMEGPRDGLKKERLLDDRHDSGLDSMKDEEYEQMVKELQEIRLEPQEVPRGSEPWKQQLTEDGDSFLHLAIIHEEKALTMEVIRQVKGDLAFLNFQNNLQQTPLHLAVITNQPEIAEALLGAGCDPELRDFRGNTPLHLACEQGCLASVGVLTQSCTTPHLHSILKATNYNGHTCLHLASIHGYLGIVELLVSLGADVNAQEPCNGRTALHLAVDLQNPDLVSLLLKCGADVNRVTYQGYSPYQLTWGRPSTRIQQQLGQLTLENLQMLPESEDEESYDTESEFTEFTEDELPYDDCVFGGQRLTL
partner: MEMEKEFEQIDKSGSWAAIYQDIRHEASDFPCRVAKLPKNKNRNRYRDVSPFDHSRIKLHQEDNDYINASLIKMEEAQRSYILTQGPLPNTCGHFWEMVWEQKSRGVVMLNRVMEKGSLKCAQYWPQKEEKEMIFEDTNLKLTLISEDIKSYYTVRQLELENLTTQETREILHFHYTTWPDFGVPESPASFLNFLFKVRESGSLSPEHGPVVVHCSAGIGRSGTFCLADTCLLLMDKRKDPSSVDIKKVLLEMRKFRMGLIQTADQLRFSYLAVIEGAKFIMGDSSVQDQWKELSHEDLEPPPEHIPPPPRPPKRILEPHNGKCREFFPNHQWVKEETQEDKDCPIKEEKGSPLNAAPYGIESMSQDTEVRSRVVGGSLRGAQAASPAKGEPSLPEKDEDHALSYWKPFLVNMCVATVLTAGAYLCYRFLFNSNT

The variants in the test derive from B1. The conditions noted are these: with ptn1_human PTPN1, P18031.
As for MFQAAERPQEWAMEGPRDGLKKERLLDDRHDSGLDSMKDEEFEQMVKELQEIRLEPQEVPRGSEPWKQQLTEDGDSFLHLAIIHEEKALTMEVIRQVKGDLAFLNFQNNLQQTPLHLAVITNQPEIAEALLGAGCDPELRDFRGNTPLHLACEQGCLASVGVLTQSCTTPHLHSILKATNYNGHTCLHLASIHGYLGIVELLVSLGADVNAQEPCNGRTALHLAVDLQNPDLVSLLLKCGADVNRVTYQGYSPYQLTWGRPSTRIQQQLGQLTLENLQMLPESEDEESYDTESEFTEFTEDELPYDDCVFGGQRLTL [Y42F], the “effect of a mutation on the interaction” value is “disrupting interaction”.
